Results from patent publication US20240343781A1 (published 2024).

B1: 10-40 (antibody, V domains shown)
VH: QLQLQESGPGLVKPSETLSLTCTVSGGSISSSNFYWGWIRQPPGKGLEWIASITYSGRTFYNPSLKSRVAISVDTSKNQFSLKLSSVTAADTAVYYCARTFPSYYDRSGYHYLNYGMDVWGQGTTVTVSS
VL: NFMLTQPHSMSESPGKTVTISCTRSSGSIASNYVQWYQQRPGSSPTTVIYEDNQRPSGVPDRFSGSIDSSSNSASLTISGLKTEDEADYYCQSYDSSSWVFGGGTKLTVL
B2: engineered monoclonal antibody 10-40 (antibody, V domains shown)
VH: B1 VH
VL: B1 VL
B3: 11-11 (antibody, V domains shown)
VH: QVQLQESGPGLVKPSQTLSLTCTVSGGSISSGGYYWSWIRQHPGKGLEWIGYIYYSGSTYYNPSLKSRVTISVDTSKNQFSLKVSSVTAADTAVYYCASSNYYDGSGYNLLESYGMDVWGQGTSVTVSS
VL: QSVLTQPPSVSGAPGQRVTISCTGSSSNIGAGYDVHWYQQLPGTAPKLLIYGNSNRPSGVPDRFSGSRSGTSASLAITGLQAEDEADYYCQSYDSSLSGSWVFGGGTKVTVL
B4: engineered monoclonal antibody 11-11 (antibody, V domains shown)
VH: B3 VH
VL: B3 VL
B5: 10-28 (antibody, V domains shown)
VH: QVQLVESGGGVVQPGRSLRLSCAASGFTFSSYDMHWVRQAPGKGLEWVAVISYDGSSKFYAESVKGRFTISRDNSKNTLYLQMNSLRAEETAVYYCVKDGEQLVPLFDYWGQGTLVTVSS
VL: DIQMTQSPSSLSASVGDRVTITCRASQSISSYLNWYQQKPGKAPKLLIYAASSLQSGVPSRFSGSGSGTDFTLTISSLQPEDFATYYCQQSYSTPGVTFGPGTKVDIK
B6: engineered monoclonal antibody 10-28 (antibody, V domains shown)
VH: B5 VH
VL: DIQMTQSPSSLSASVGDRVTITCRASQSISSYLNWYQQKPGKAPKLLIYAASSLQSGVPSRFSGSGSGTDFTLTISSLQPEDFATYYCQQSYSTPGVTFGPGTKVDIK

Key:
[1] = target: SARS-CoV-2 Spike; assay: SPR
[2] = target: GX-Pangolin; assay: ELISA
[3] = target: SHC014; assay: ELISA
[4] = target: Rs4081; assay: ELISA
[5] = target: Yunnan2011; assay: ELISA
[6] = target: RmYN02; assay: ELISA
[7] = target: SARS-CoV; assay: ELISA
[8] = target: BtKY72; assay: ELISA
[9] = target: RaTG13; assay: ELISA
[10] = target: WIV1; assay: ELISA
[11] = target: BM-4831; assay: ELISA
[12] = target: Rf1; assay: ELISA
[13] = target: SARS-COV spike trimer (SARS-CoV, UniProt P59594 14-1190); assay: SPR

Binder	Kd [1] [pM]	EC50 [2] [ng/mL]	EC50 [3] [ng/mL]	EC50 [4] [ng/mL]	EC50 [5] [ng/mL]	EC50 [6] [ng/mL]	EC50 [7] [ng/mL]	EC50 [8] [ng/mL]	EC50 [9] [ng/mL]	EC50 [10] [ng/mL]	EC50 [11] [ng/mL]	EC50 [12] [ng/mL]	Kd [13] [pM]
B1	4.52	4	5	9	37	10	8	4	3	4	3	4	
B2													2.21
B3	1540	> 10000	6	> 10000	> 10000	> 10000	19	7	> 10000	6	1500	> 10000	
B4													4.51
B5	0.782	4	2	7	9	6	5	4	2	3	2	4	
B6													3.69
